# Results from publication PMC10540216, “Activity Guided Azide-methyllysine Photo-trapping for Substrate Profiling of Lysine Demethylases” (Journal of the American Chemical Society, 2023).
# System: KDM4A-I71AzF
# Assay: CASI: photo-crosslinking with HEK293T cell extracts, StrepTactin enrichment and LC-MS/MS proteomics;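 also: lysates from HEK293T cells pretreated with a KDM4 inhibitor to raise proteome methylation, affinity-purified after ±UV, gel-resolved, trypsin-digested, with exclusive unique peptides per protein averaged per condition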
# Format: binding, human
# Conditions: sheet "Final results but with 0.01"
row,Molecule,Fold change (+UV/-UV)
1,"TR150_HUMAN (protein, UniProt Q9Y2W1 2-955, looked up) Thyroid hormone …: SKTNKSKSGSRSSRSRSASRSRSRSFSKSRSRSRSLSRSRKRRLSSRSRSRSYSPAHNRERNHPRVYQNRDFRGHNRGYRRPYYFRGRNRGFYPWGQYNRGGYGNYRSNWQNYRQAYSPRRGRSRSRSPKRRSPSPRSRSHSRNSDKSSSDRSRRSSSSRSSSNHSRVESSKRKSAKEKKSSSKDSRPSQAAGDNQGDEAKEQTFSGGTSQDTKASESSKPWPDATYGTGSASRASAVSELSPRERSPALKSPLQSVVVRRRSPRPSPVPKPSPPLSSTSQMGSTLPSGAGYQSGTHQGQFDHGSGSLSPSKKSPVGKSPPSTGSTYGSSQKEESAASGGAAYTKRYLEEQKTENGKDKEQKQTNTDKEKIKEKGSFSDTGLGDGKMKSDSFAPKTDSEKPFRGSQSPKRYKLRDDFEKKMADFHKEEMDDQDKDKAKGRKESEFDDEPKFMSKVIGANKNQEEEKSGKWEGLVYAPPGKEKQRKTEELEEESFPERSKKEDRGKRSEGGHRGFVPEKNFRVTAYKAVQEKSSSPPPRKTSESRDKLGAKGDFPTGKSSFSITREAQVNVRMDSFDEDLARPSGLLAQERKLCRDLVHSNKKEQEFRSIFQHIQSAQSQRSPSELFAQHIVTIVHHVKEHHFGSSGMTLHERFTKYLKRGTEQEAAKNKKSPEIHRRIDISPSTFRKHGLAHDEMKSPREPGYKAEGKYKDDPVDLRLDIERRKKHKERDLKRGKSRESVDSRDSSHSRERSAEKTEKTHKGSKKQKKHRRARDRSRSSSSSSQSSHSYKAEEYTEETEEREESTTGFDKSRLGTKDFVGPSERGGGRARGTFQFRARGRGWGRGNYSGNNNNNSNNDFQKRNREEEWDPEYTPKSKKYYLHDDREGEGSDKWVSRGRGRGAFPRGRGRFMFRKSSTSPKWAHDKFSGEEGEIEDDESGTENREEKDNIQPTTE",1.333
2,"SF3B3_HUMAN (protein, UniProt Q15393 1-1217, looked up) Splicing factor 3B subunit 3: MFLYNLTLQRATGISFAIHGNFSGTKQQEIVVSRGKILELLRPDPNTGKVHTLLTVEVFGVIRSLMAFRLTGGTKDYIVVGSDSGRIVILEYQPSKNMFEKIHQETFGKSGCRRIVPGQFLAVDPKGRAVMISAIEKQKLVYILNRDAAARLTISSPLEAHKANTLVYHVVGVDVGFENPMFACLEMDYEEADNDPTGEAAANTQQTLTFYELDLGLNHVVRKYSEPLEEHGNFLITVPGGSDGPSGVLICSENYITYKNFGDQPDIRCPIPRRRNDLDDPERGMIFVCSATHKTKSMFFFLAQTEQGDIFKITLETDEDMVTEIRLKYFDTVPVAAAMCVLKTGFLFVASEFGNHYLYQIAHLGDDDEEPEFSSAMPLEEGDTFFFQPRPLKNLVLVDELDSLSPILFCQIADLANEDTPQLYVACGRGPRSSLRVLRHGLEVSEMAVSELPGNPNAVWTVRRHIEDEFDAYIIVSFVNATLVLSIGETVEEVTDSGFLGTTPTLSCSLLGDDALVQVYPDGIRHIRADKRVNEWKTPGKKTIVKCAVNQRQVVIALTGGELVYFEMDPSGQLNEYTERKEMSADVVCMSLANVPPGEQRSRFLAVGLVDNTVRIISLDPSDCLQPLSMQALPAQPESLCIVEMGGTEKQDELGERGSIGFLYLNIGLQNGVLLRTVLDPVTGDLSDTRTRYLGSRPVKLFRVRMQGQEAVLAMSSRSWLSYSYQSRFHLTPLSYETLEFASGFASEQCPEGIVAISTNTLRILALEKLGAVFNQVAFPLQYTPRKFVIHPESNNLIIIETDHNAYTEATKAQRKQQMAEEMVEAAGEDERELAAEMAAAFLNENLPESIFGAPKAGNGQWASVIRVMNPIQGNTLDLVQLEQNEAAFSVAVCRFSNTGEDWYVLVGVAKDLILNPRSVAGGFVYTYKLVNNGEKLEFLHKTPVEEVPAAIAPFQGRVLIGVGKLLRVYDLGKKKLLRKCENKHIANYISGIQTIGHRVIVSDVQESFIWVRYKRNENQLIIFADDTYPRWVTTASLLDYDTVAGADKFGNICVVRLPPNTNDEVDEDPTGNKALWDRGLLNGASQKAEVIMNYHVGETVLSLQKTTLIPGGSESLVYTTLSGGIGILVPFTSHEDHDFFQHVEMHLRSEHPPLCGRDHLSFRSYYFPVKNVIDGDLCEQFNSMEPNKQKNVSEELDRTPPEVSKKLEDIRTRYAF",0.7381
3,"CAND1_HUMAN (protein, UniProt Q86VP6 2-1230, looked up) Cullin-associated …: ASASYHISNLLEKMTSSDKDFRFMATNDLMTELQKDSIKLDDDSERKVVKMILKLLEDKNGEVQNLAVKCLGPLVSKVKEYQVETIVDTLCTNMLSDKEQLRDISSIGLKTVIGELPPASSGSALAANVCKKITGRLTSAIAKQEDVSVQLEALDIMADMLSRQGGLLVNFHPSILTCLLPQLTSPRLAVRKRTIIALGHLVMSCGNIVFVDLIEHLLSELSKNDSMSTTRTYIQCIAAISRQAGHRIGEYLEKIIPLVVKFCNVDDDELREYCIQAFESFVRRCPKEVYPHVSTIINICLKYLTYDPNYNYDDEDEDENAMDADGGDDDDQGSDDEYSDDDDMSWKVRRAAAKCLDAVVSTRHEMLPEFYKTVSPALISRFKEREENVKADVFHAYLSLLKQTRPVQSWLCDPDAMEQGETPLTMLQSQVPNIVKALHKQMKEKSVKTRQCCFNMLTELVNVLPGALTQHIPVLVPGIIFSLNDKSSSSNLKIDALSCLYVILCNHSPQVFHPHVQALVPPVVACVGDPFYKITSEALLVTQQLVKVIRPLDQPSSFDATPYIKDLFTCTIKRLKAADIDQEVKERAISCMGQIICNLGDNLGSDLPNTLQIFLERLKNEITRLTTVKALTLIAGSPLKIDLRPVLGEGVPILASFLRKNQRALKLGTLSALDILIKNYSDSLTAAMIDAVLDELPPLISESDMHVSQMAISFLTTLAKVYPSSLSKISGSILNELIGLVRSPLLQGGALSAMLDFFQALVVTGTNNLGYMDLLRMLTGPVYSQSTALTHKQSYYSIAKCVAALTRACPKEGPAVVGQFIQDVKNSRSTDSIRLLALLSLGEVGHHIDLSGQLELKSVILEAFSSPSEEVKSAASYALGSISVGNLPEYLPFVLQEITSQPKRQYLLLHSLKEIISSASVVGLKPYVENIWALLLKHCECAEEGTRNVVAECLGKLTLIDPETLLPRLKGYLISGSSYARSSVVTAVKFTISDHPQPIDPLLKNCIGDFLKTLEDPDLNVRRVALVTFNSAAHNKPSLIRDLLDTVLPHLYNETKVRKELIREVEMGPFKHTVDDGLDIRKAAFECMYTLLDSCLDRLDIFEFLNHVEDGLKDHYDIKMLTFLMLVRLSTLCPSAVLQRLDRLVEPLRATCTTKVKANSVKQEFEKQDELKRSAMRAVAALLTIPEAEKSPLMSEFQSQISSNPELAAIFESIQKDSSSTNLESMDTS",0.3333
4,"RBM26_HUMAN (protein, UniProt Q5T8P6 1-1007, looked up) RNA-binding protein 26: MVSKMIIENFEALKSWLSKTLEPICDADPSALAKYVLALVKKDKSEKELKALCIDQLDVFLQKETQIFVEKLFDAVNTKSYLPPPEQPSSGSLKVEFFPHQEKDIKKEEITKEEEREKKFSRRLNHSPPQSSSRYRENRSRDERKKDDRSRKRDYDRNPPRRDSYRDRYNRRRGRSRSYSRSRSRSWSKERLRERDRDRSRTRSRSRTRSRERDLVKPKYDLDRTDPLENNYTPVSSVPSISSGHYPVPTLSSTITVIAPTHHGNNTTESWSEFHEDQVDHNSYVRPPMPKKRCRDYDEKGFCMRGDMCPFDHGSDPVVVEDVNLPGMLPFPAQPPVVEGPPPPGLPPPPPILTPPPVNLRPPVPPPGPLPPSLPPVTGPPPPLPPLQPSGMDAPPNSATSSVPTVVTTGIHHQPPPAPPSLFTADTYDTDGYNPEAPSITNTSRPMYRHRVHAQRPNLIGLTSGDMDLPPREKPPNKSSMRIVVDSESRKRTIGSGEPGVPTKKTWFDKPNFNRTNSPGFQKKVQFGNENTKLELRKVPPELNNISKLNEHFSRFGTLVNLQVAYNGDPEGALIQFATYEEAKKAISSTEAVLNNRFIKVYWHREGSTQQLQTTSPKVMQPLVQQPILPVVKQSVKERLGPVPSSTIEPAEAQSASSDLPQNVTKLSVKDRLGFVSKPSVSATEKVLSTSTGLTKTVYNPAALKAAQKTLLVSTSAVDNNEAQKKKQEALKLQQDVRKRKQEILEKHIETQKMLISKLEKNKTMKSEDKAEIMKTLEVLTKNITKLKDEVKAASPGRCLPKSIKTKTQMQKELLDTELDLYKKMQAGEEVTELRRKYTELQLEAAKRGILSSGRGRGIHSRGRGAVHGRGRGRGRGRGVPGHAVVDHRPRALEISAFTESDREDLLPHFAQYGEIEDCQIDDSSLHAVITFKTRAEAEAAAVHGARFKGQDLKLAWNKPVTNISAVETEEVEPDEEEFQEESLVDDSLLQDDDEEEEDNESRSWRR",0.3333
5,"RBM10_HUMAN (protein, UniProt P98175 1-930, looked up) RNA-binding protein 10: MEYERRGGRGDRTGRYGATDRSQDDGGENRSRDHDYRDMDYRSYPREYGSQEGKHDYDDSSEEQSAEDSYEASPGSETQRRRRRRHRHSPTGPPGFPRDGDYRDQDYRTEQGEEEEEEEDEEEEEKASNIVMLRMLPQAATEDDIRGQLQSHGVQAREVRLMRNKSSGQSRGFAFVEFSHLQDATRWMEANQHSLNILGQKVSMHYSDPKPKINEDWLCNKCGVQNFKRREKCFKCGVPKSEAEQKLPLGTRLDQQTLPLGGRELSQGLLPLPQPYQAQGVLASQALSQGSEPSSENANDTIILRNLNPHSTMDSILGALAPYAVLSSSNVRVIKDKQTQLNRGFAFIQLSTIVEAAQLLQILQALHPPLTIDGKTINVEFAKGSKRDMASNEGSRISAASVASTAIAAAQWAISQASQGGEGTWATSEEPPVDYSYYQQDEGYGNSQGTESSLYAHGYLKGTKGPGITGTKGDPTGAGPEASLEPGADSVSMQAFSRAQPGAAPGIYQQSAEASSSQGTAANSQSYTIMSPAVLKSELQSPTHPSSALPPATSPTAQESYSQYPVPDVSTYQYDETSGYYYDPQTGLYYDPNSQYYYNAQSQQYLYWDGERRTYVPALEQSADGHKETGAPSKEGKEKKEKHKTKTAQQIAKDMERWARSLNKQKENFKNSFQPISSLRDDERRESATADAGYAILEKKGALAERQHTSMDLPKLASDDRPSPPRGLVAAYSGESDSEEEQERGGPEREEKLTDWQKLACLLCRRQFPSKEALIRHQQLSGLHKQNLEIHRRAHLSENELEALEKNDMEQMKYRDRAAERREKYGIPEPPEPKRRKYGGISTASVDFEQPTRDGLGSDNIGSRMLQAMGWKEGSGLGRKKQGIVTPIEAQTRVRGSGLGARGSSYGVTSTESYKETLHKTMVTRFNEAQ",0
